From publication PMC9482650, “Quantitative fragmentomics allow affinity mapping of interactomes” (Nature Communications, 2022)
Residue numbers refer to the chain shown, from its start.

T1: APBA1_2, Q02410
T1 sequence (Q02410 742-832, limits assumed, looked up): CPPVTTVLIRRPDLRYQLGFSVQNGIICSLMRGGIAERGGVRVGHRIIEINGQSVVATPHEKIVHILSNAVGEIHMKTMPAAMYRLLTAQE

T2: APBA2_2, Q99767
T2 sequence (Q99767 654-744, limits assumed, looked up): T1 sequence (Q02410 742-832, limits assumed, looked up) with R10K, R15K, P59A, H65Q, I66A, A70S, Y84F, A89G

T3: ARHGAP21, Q5T5U3
T3 sequence (Q5T5U3 45-169, limits assumed, looked up): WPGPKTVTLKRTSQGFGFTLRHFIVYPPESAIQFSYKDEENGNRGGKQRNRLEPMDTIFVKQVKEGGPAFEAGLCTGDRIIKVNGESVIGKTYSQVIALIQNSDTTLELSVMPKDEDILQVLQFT

T4: GRIP1_7, Q9Y3R0
T4 sequence (Q9Y3R0 999-1096, limits assumed, looked up): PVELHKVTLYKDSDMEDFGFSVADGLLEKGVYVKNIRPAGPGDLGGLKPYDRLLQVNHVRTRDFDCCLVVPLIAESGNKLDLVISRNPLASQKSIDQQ

T5: HTRA4, P83105
T5 sequence (P83105 378-476, limits assumed, looked up): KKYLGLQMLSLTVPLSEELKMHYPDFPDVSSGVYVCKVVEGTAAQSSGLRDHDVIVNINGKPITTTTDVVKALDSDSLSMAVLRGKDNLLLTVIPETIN

T6: MPDZ_10, O75970
T6 sequence (O75970 1624-1722, limits assumed, looked up): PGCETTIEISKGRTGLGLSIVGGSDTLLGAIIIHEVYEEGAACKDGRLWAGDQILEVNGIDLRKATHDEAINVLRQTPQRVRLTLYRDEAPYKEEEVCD

T7: MPDZ_5, O75970
T7 sequence (O75970 695-796, limits assumed, looked up): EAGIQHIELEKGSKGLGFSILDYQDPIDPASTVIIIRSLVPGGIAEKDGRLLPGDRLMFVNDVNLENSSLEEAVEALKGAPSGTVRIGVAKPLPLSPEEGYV

T8: MPP2, Q14168
T8 sequence (Q14168 180-250, limits assumed, looked up): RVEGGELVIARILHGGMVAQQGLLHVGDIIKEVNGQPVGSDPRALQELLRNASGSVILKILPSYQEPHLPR

T9: MPP6, Q9NZW5
T9 sequence (Q9NZW5 125-219, limits assumed, looked up): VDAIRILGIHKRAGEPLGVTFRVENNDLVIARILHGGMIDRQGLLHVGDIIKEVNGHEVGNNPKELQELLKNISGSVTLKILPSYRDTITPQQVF

T10: MPP7, Q5T2T1
T10 sequence (Q5T2T1 134-230, limits assumed, looked up): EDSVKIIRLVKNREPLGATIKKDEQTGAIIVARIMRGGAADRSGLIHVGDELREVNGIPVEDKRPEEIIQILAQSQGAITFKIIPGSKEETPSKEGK

T11: PCLO, Q9Y6V0
T11 sequence (Q9Y6V0 4491-4600, limits assumed, looked up): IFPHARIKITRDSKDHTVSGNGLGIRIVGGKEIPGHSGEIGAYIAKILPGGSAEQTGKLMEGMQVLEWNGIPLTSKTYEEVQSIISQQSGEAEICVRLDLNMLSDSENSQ

T12: SNTG2, Q9NY99
T12 sequence (Q9NY99 68-166, limits assumed, looked up): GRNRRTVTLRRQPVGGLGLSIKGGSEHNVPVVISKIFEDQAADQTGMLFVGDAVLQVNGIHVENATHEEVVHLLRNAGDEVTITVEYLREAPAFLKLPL

B1: PLEKHG7, Q6ZR37 (peptide)
chain: FTLPAESSEI
B2: ADGRA2, Q96PE1 (peptide)
chain: TGLWKSETTV
B3: GAB3, Q8WWW8 (peptide)
chain: EWTDERQSKV
B4: CLDN9, O95484 (peptide)
chain: ASGLDKRDYV

What was measured:
Assay in all cases: holdup assay
Set-up in all cases: key: below the threshold = too weak to quantify, mostly under pKd 3.1 to 4
Details in all cases: plain residues with an end cap or a label only (N-terminal biotin on a linker: ado-ado)
APBA1_2, Q02410 = target: T1, APBA1_2, Q02410
APBA2_2, Q99767 = target: T2, APBA2_2, Q99767
ARHGAP21, Q5T5U3 = target: T3, ARHGAP21, Q5T5U3
DLG1_1, Q12959 = target: DLG1_1, Q12959
DLG1_3, Q12959 = target: DLG1_3, Q12959
GRIP1_7, Q9Y3R0 = target: T4, GRIP1_7, Q9Y3R0
GRIP2_3, Q9C0E4 = target: GRIP2_3, Q9C0E4
Chain of GRIP2_3, Q9C0E4 (Q9C0E4 238-339): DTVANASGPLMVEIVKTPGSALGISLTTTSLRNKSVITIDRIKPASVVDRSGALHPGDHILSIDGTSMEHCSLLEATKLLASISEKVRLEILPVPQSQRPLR

GRIP2_4, Q9C0E4 = target: GRIP2_4, Q9C0E4
Chain of GRIP2_4, Q9C0E4 (Q9C0E4 446-548): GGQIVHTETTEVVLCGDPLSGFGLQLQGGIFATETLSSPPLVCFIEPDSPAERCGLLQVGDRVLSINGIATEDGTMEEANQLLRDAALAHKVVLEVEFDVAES

GRIP2_5, Q9C0E4 = target: GRIP2_5, Q9C0E4
Chain of GRIP2_5, Q9C0E4 (Q9C0E4 544-642): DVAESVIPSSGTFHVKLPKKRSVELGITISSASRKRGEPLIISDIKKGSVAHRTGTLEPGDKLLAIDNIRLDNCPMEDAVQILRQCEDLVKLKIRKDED

HTRA4, P83105 = target: T5, HTRA4, P83105
IL16_1, Q14005 = target: IL16_1, Q14005
Chain of IL16_1, Q14005 (Q14005 210-306): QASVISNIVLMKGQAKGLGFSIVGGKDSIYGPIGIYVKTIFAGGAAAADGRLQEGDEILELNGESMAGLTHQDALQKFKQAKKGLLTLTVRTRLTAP

LAP2, Q96RT1 = target: LAP2, Q96RT1
Chain of LAP2, Q96RT1 (Q96RT1 other isoform, or with tags, fused parts or gaps): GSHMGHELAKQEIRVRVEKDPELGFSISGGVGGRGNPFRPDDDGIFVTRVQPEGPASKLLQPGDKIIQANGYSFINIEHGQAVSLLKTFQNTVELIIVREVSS

LNX1_1, Q8TBB1 = target: LNX1_1, Q8TBB1
Chain of LNX1_1, Q8TBB1 (Q8TBB1 261-371): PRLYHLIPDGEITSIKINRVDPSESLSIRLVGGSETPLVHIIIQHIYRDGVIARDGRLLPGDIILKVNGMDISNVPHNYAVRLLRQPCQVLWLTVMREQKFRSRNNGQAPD

MAGI2_3, Q86UL8 = target: MAGI2_3, Q86UL8
Chain of MAGI2_3, Q86UL8 (Q86UL8 600-682): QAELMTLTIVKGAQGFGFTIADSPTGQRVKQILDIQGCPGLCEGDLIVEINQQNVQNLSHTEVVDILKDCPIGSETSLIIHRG

MAGI2_6, Q86UL8 = target: MAGI2_6, Q86UL8
Chain of MAGI2_6, Q86UL8 (Q86UL8 1141-1229): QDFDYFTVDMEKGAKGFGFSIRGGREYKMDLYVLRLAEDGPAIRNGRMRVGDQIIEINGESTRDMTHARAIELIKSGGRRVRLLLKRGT

MAGI3_2, Q5TCQ9 = target: MAGI3_2, Q5TCQ9
Chain of MAGI3_2, Q5TCQ9 (Q5TCQ9 398-503): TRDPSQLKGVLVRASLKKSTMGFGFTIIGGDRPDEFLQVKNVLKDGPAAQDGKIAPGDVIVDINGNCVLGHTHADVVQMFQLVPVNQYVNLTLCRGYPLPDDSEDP

MPDZ_10, O75970 = target: T6, MPDZ_10, O75970
MPDZ_5, O75970 = target: T7, MPDZ_5, O75970
MPP2, Q14168 = target: T8, MPP2, Q14168
MPP6, Q9NZW5 = target: T9, MPP6, Q9NZW5
MPP7, Q5T2T1 = target: T10, MPP7, Q5T2T1
NHERF2_2, Q15599 = target: NHERF2_2, Q15599
Chain of NHERF2_2, Q15599 (Q15599 142-238): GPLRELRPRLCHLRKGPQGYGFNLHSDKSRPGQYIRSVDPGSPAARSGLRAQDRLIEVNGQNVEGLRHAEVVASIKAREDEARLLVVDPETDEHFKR

NHERF4_2, Q86UT5 = target: NHERF4_2, Q86UT5
Chain of NHERF4_2, Q86UT5 (Q86UT5 220-308): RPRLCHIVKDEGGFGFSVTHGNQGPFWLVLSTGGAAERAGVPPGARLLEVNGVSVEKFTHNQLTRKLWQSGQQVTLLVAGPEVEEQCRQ

PCLO, Q9Y6V0 = target: T11, PCLO, Q9Y6V0
SCRIB_2, Q14160 = target: SCRIB_2, Q14160
Chain of SCRIB_2, Q14160 (Q14160 857-960): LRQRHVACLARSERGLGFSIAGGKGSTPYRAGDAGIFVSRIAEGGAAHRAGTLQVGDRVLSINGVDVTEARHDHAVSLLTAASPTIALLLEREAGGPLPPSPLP

SNTG2, Q9NY99 = target: T12, SNTG2, Q9NY99

Binder | pKd (APBA1_2, Q02410) | pKd (APBA2_2, Q99767) | pKd (ARHGAP21, Q5T5U3) | pKd (DLG1_1, Q12959) | pKd (DLG1_3, Q12959) | pKd (GRIP1_7, Q9Y3R0) | pKd (GRIP2_3, Q9C0E4) | pKd (GRIP2_4, Q9C0E4) | pKd (GRIP2_5, Q9C0E4) | pKd (HTRA4, P83105) | pKd (IL16_1, Q14005) | pKd (LAP2, Q96RT1) | pKd (LNX1_1, Q8TBB1) | pKd (MAGI2_3, Q86UL8) | pKd (MAGI2_6, Q86UL8) | pKd (MAGI3_2, Q5TCQ9) | pKd (MPDZ_10, O75970) | pKd (MPDZ_5, O75970) | pKd (MPP2, Q14168) | pKd (MPP6, Q9NZW5) | other results
B1 | below the threshold | below the threshold | below the threshold | below the threshold | below the threshold | below the threshold | below the threshold | below the threshold | below the threshold | 3.5 | below the threshold | below the threshold | below the threshold | below the threshold | below the threshold | below the threshold | below the threshold | below the threshold | below the threshold | below the threshold | pKd (MPP7, Q5T2T1): below the threshold; pKd (NHERF2_2, Q15599): below the threshold; pKd (NHERF4_2, Q86UT5): below the threshold; pKd (PCLO, Q9Y6V0): below the threshold; pKd (SCRIB_2, Q14160): below the threshold; pKd (SNTG2, Q9NY99): below the threshold
B2 | 3.57 | below the threshold | 4.03 | 4.85 | 4.38 | below the threshold | below the threshold | below the threshold | below the threshold | below the threshold | 3.77 | 3.7 | below the threshold | below the threshold | 3.85 | 5.6 | below the threshold | below the threshold | below the threshold | 3.85 | pKd (MPP7, Q5T2T1): below the threshold; pKd (NHERF2_2, Q15599): below the threshold; pKd (NHERF4_2, Q86UT5): below the threshold; pKd (PCLO, Q9Y6V0): below the threshold; pKd (SCRIB_2, Q14160): 4.31; pKd (SNTG2, Q9NY99): 4.14
B3 | 3.63 | below the threshold | 4.07 | 3.48 | 3.76 | below the threshold | below the threshold | below the threshold | below the threshold | below the threshold | 3.97 | 3.56 | 3.52 | below the threshold | 3.53 | 3.6 | 3.75 | below the threshold | below the threshold | below the threshold | pKd (MPP7, Q5T2T1): below the threshold; pKd (NHERF2_2, Q15599): 3.8; pKd (NHERF4_2, Q86UT5): below the threshold; pKd (PCLO, Q9Y6V0): below the threshold; pKd (SCRIB_2, Q14160): below the threshold; pKd (SNTG2, Q9NY99): 3.88
B4 | 4.35 | below the threshold | below the threshold | below the threshold | below the threshold | below the threshold | below the threshold | below the threshold | below the threshold | below the threshold | below the threshold | below the threshold | below the threshold | below the threshold | below the threshold | below the threshold | below the threshold | below the threshold | below the threshold | 3.69 | pKd (MPP7, Q5T2T1): below the threshold; pKd (NHERF2_2, Q15599): below the threshold; pKd (NHERF4_2, Q86UT5): below the threshold; pKd (PCLO, Q9Y6V0): below the threshold; pKd (SCRIB_2, Q14160): below the threshold; pKd (SNTG2, Q9NY99): below the threshold
